Results as given in US20240368233A1 (University of Washington, published 2024).

What was measured:
[1] = biological target: T1, 284B; assay: BLI, steady state fit
T1 construct: also called LHD284 B; LHD284 chainB
T1 chain: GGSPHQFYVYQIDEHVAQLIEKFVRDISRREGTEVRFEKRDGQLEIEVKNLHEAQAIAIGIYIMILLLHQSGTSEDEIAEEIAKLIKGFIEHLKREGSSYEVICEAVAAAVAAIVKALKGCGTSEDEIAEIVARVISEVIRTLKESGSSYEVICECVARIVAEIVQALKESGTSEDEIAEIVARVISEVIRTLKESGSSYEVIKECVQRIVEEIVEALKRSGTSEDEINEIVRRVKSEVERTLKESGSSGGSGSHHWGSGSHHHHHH
Experimental: (§1) Biolayer interferometry experiments were performed on an OctetRED96 BLI system (ForteBio, Menlo Park, CA). Streptavidin coated biosensors were first equilibrated for at least 10 minutes in Octet buffer (10 mM HEPES pH 7.4, 150 mM NaCl, 3 mM EDTA, 0.05% Surfactant P20) supplemented with 1 mg/ml Bovine Serum Albumin (SigmaAldrich). Enzymatically biotinylated designs were immobilized onto the biosensors by dipping the biosensors into a solution with 10-50 nM protein for 30-120 s. This was followed by dipping in fresh octet buffer to establish a baseline for 120 s. Titration experiments were performed at 25° C. while rotating at 1,000 r.p.m. Association of designs was allowed by dipping biosensors in solutions containing designed protein diluted in octet buffer until equilibrium was approached followed by dissociation by dipping the biosensors into fresh buffer solution in order to monitor the dissociation kinetics. Steady-state and global kinetic fits were performed using the manufacturer's software (Data Analysis 9.1) assuming a 1:1 binding model.

[2] = biological target: T1, 284B; assay: BLI, global kinetic fit, 1:1 model
Experimental: as §1

[3] = biological target: T2, 275B; assay: SEC of mixed components; tetramer (control pentamer) listed in Table 6, neighbours in the chain
T2 construct: also called LHD275 B; LHD275B
T2 chain: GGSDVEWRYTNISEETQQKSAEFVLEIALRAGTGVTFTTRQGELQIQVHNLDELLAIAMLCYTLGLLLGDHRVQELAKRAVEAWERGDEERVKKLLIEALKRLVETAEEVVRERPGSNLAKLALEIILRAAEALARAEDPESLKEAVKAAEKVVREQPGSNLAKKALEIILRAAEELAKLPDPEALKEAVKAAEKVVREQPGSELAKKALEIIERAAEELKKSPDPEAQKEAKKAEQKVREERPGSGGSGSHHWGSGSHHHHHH
Experimental: (§2) Complexes and individual components were diluted in 20 mM Tris pH 8.0, 100 mM NaCl. After o/n equilibration of the mixtures at room temperature or 4 degrees C., 500 ul of sample was injected onto a Superdex™ 200 10/300 increase GL (dimers, linear assemblies) or Superose™ 6 increase 10/300 GL (symmetric assemblies) (all columns from GE healthcare) using the absorbance at 230 nm or 473 nm (for GFP tagged components) as read-out. Dimers were mixed at monomer concentrations of 5 μM or higher. Trimer and ABCD tetramer mixtures contained 5 μM of the bivalent connector, and 7.5 μM of each terminal cap (lower absolute concentrations with the same ratios were used for some trimers). ABCA tetramer mixtures contained 5 μM per bivalent connector and 15 μM terminal cap. The hexamer mixture contained 3 μM of components C and D, 3.6 μM of B and E, and 4.4 μM of A and F. The branched assembly shown in FIG. 4A contained 2.8 μM of the trivalent connector and 4 μM of each cap. For the exchange experiment shown in FIG. 5A, the ABC trimer was preincubated at concentrations of 6 μM B and 9 μM each of A and C. C′ was then added to reach a final concentration of 2 μM B, 3 μM each of A and C, and 6 μM C′.

[4] = biological target: T3, 298B; assay: BLI, steady state fit
T3 construct: also called LHD298 B; LHD298 chainB
T3 chain: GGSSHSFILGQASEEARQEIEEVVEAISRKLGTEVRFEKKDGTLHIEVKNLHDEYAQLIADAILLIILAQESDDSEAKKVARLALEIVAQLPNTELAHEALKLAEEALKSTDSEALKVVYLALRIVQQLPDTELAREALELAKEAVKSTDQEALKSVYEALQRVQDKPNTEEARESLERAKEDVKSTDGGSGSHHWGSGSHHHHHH
Experimental: as §1

[5] = biological target: T3, 298B; assay: BLI, global kinetic fit, 1:1 model
Experimental: as §1

[6] = biological target: T2, 275B; assay: BLI, steady state fit
Experimental: as §1

[7] = biological target: the molecule itself; assay: SEC titration of the protomer alone at several injection concentrations (Superdex 75, normalised A230); self-association
[8] = biological target: T2, 275B; assay: BLI, global kinetic fit, 1:1 model
Experimental: as §1

[9] = biological target: T4, 289B; assay: BLI, steady state fit
T4 construct: also called LHD289 B; LHD289 chainB
T4 chain: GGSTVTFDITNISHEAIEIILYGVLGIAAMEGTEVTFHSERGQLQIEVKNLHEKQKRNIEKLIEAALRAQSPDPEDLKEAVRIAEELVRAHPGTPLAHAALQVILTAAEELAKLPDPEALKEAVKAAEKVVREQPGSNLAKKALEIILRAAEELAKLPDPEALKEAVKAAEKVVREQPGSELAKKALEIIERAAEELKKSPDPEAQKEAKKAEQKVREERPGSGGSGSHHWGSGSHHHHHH
Experimental: as §1

[10] = biological target: T4, 289B; assay: BLI, global kinetic fit, 1:1 model
Experimental: as §1

[11] = biological target: T5, DF202; assay: SEC of mixed components; trimer listed in Table 6
T5 construct: Bivalent connector
T5 chain: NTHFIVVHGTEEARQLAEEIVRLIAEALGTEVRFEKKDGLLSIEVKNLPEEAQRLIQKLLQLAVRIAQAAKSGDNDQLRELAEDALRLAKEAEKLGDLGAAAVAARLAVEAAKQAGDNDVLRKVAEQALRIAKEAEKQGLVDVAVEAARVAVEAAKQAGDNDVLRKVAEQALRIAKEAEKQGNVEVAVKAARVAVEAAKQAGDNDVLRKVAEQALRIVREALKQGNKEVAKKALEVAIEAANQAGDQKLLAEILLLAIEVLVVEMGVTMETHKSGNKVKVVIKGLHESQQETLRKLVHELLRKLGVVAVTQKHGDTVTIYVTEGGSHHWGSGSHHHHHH

[12] = biological target: T6, DF206; assay: SEC of mixed components; tetramer (control pentamer) listed in Table 6, neighbours in the chain
T6 construct: Bivalent connector
T6 chain: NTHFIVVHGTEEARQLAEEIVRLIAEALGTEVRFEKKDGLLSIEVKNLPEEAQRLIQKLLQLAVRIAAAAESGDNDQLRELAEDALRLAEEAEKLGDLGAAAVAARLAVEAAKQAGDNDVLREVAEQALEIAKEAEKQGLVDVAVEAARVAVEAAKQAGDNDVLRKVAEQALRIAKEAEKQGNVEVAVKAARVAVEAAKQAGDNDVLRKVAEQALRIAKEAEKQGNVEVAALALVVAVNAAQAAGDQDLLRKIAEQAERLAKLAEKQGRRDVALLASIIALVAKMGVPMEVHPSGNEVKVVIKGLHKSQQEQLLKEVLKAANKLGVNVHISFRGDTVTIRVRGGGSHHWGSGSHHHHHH
Experimental: as §2

[13] = biological target: T7, DFB-1; assay: SEC of mixed components; linear tetramer listed in Table 6, neighbours in the chain
T7 construct: Bivalent connector
T7 chain: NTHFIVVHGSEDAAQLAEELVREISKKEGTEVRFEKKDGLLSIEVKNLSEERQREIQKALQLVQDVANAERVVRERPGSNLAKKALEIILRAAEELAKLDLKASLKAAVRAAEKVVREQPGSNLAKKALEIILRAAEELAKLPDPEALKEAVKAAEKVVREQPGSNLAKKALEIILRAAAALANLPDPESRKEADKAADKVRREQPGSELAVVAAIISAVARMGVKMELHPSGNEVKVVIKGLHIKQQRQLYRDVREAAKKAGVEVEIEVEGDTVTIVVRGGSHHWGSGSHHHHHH

[14] = biological target: T8, DFB0; assay: as above
T8 construct: Bivalent connector
T8 chain: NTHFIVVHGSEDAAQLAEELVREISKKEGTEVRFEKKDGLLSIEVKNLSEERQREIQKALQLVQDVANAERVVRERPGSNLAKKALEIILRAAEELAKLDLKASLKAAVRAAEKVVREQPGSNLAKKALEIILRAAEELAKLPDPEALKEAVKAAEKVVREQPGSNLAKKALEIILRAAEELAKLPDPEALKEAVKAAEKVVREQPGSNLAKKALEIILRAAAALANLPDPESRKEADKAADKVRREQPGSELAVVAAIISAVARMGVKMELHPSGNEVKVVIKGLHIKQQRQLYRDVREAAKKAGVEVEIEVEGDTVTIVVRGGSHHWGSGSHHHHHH

[15] = biological target: T9, 278B; assay: BLI, steady state fit
T9 construct: also called LHD278 B; LHD278 chainB
T9 chain: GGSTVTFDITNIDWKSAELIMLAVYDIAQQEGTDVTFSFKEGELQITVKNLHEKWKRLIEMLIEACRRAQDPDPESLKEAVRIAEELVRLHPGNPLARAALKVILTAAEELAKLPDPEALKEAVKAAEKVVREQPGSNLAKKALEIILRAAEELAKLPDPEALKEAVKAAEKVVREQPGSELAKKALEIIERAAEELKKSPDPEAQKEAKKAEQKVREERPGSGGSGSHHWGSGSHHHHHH
Experimental: as §1

[16] = biological target: T9, 278B; assay: BLI, global kinetic fit, 1:1 model
Experimental: as §1

B1: LHD284 chainA (designed binder)
chain: TDELLERLRQLFEELHERGTIIIVEVHINGERQTKYLILAPKEELKKHLERIREKIEREGSSEVEVKVTSGGTTWTFNEK
notes: also called LHD284A
What does the source list for B1?
Kd [1]: 97 nM; Kd [2]: 8.9 nM; koff [2]: 0.0012 s⁻¹; kon [2]: 130000 M⁻¹ s⁻¹

B2: DF275A-1 (designed binder)
chain: HHHHHHGSGSGRQEKVLKSIEETVRKMGVEMLTFRAGKAVIVVIRGLHPEQAKQLLRDVSQTAHKQGVTVTLTFHGDVVFILVLVGASEEQQRAMQLLIQALARIIHEAKRRGVSEEQLKRMIEAAARLIEVLLKALEAAREGNTDEVREQLQRALEIVREIGLTAAVRLALLVVEAVATLAAKRGNTDAVREALEVALEIARESGTTEAVKLALEVVARVAIEAARRGNTDAVREALEVALEIARESGTTEAVKLALEVVARVAIEAARRGNTDAVREALAVAVKIALKSGTEEAFRLAKEVIKRVSDEAKKQGNEDAVKEAESFDAAAELILSLLKLFRELHERGTEIVVEVHINGRKTEIEVQGIDKRLLQIILEVIIEEIAREGPDKVEVNVHSGGQTWTFRYGGS
notes: Bivalent connector
Does B2 bind [3]?
Result: binds

B3: LHD298 chainA (designed binder)
chain: GRQEKVLKSIEETVRKMGVTMETHRSGNTVKVVIKGLHESQQEQLHKDVEETVQKEGVFVLVSHHGDTVTIQVYE
notes: also called LHD298A
For B3, which Kd [4] is on record?
Its Kd is 16 nM.

And the Kd [5]?
The Kd was 3.5 nM.

And the koff [5]?
The koff was 0.00022 s⁻¹.

What about the kon [5] of the same binder?
The kon was 64000 M⁻¹ s⁻¹.

B4: LHD275 chainA (designed binder)
chain: GRQEKVLKSIEETVRKMGVEMLTFRAGNAVIVVIRGLHPEQAKQLLRDVSQTAHKQGVTVTLTFHGDVVFILVLVGASEEEQKHMQERIQELARIIHEAKRRGVSEEQLREIAEKMAKEIQEWG
notes: also called LHD275A
With B4 as the binder, how does the Kd [6] read?
Its Kd is 4.5 nM.

Does B4 bind [7]?
Result: no binding (tested: 8.0 uM)

And the Kd [8]?
The Kd was 2.9 nM.

And the koff [8]?
Its koff is 0.00041 s⁻¹.

What about the kon [8] of the same binder?
The kon was 140000 M⁻¹ s⁻¹.

B5: LHD289 chainA (designed binder)
chain: GRQEKVLKSIEETVRKMGVTMLTHRHGNVVFVVILGLHKQQALQLLRDVHRTAHKQGVTLSITFSGDIVVIAVTVGASEEEKKEVRKIVKEIAKQLRHAETEEEAKEIVQRVIEEWQEEG
notes: also called LHD289A
Which results are given for B5?
Kd [9]: 610 nM; Kd [10]: 1080 nM; koff [10]: 0.057 s⁻¹; kon [10]: 53000 M⁻¹ s⁻¹

B6: DFA0 (designed binder)
chain: TTNFHLINGSEEARQLIEKAVRAISKKEGTEVHFEKSDGTLEIRVKNLHEKREREIKKVIELILEVAAAERIVRERPGSNLAKKALEIILRAAEELAKADVDAALEAAVRAAEKVVREQPGSNLAKKALEIILRAAEELAKLPDPEALKEAVKAAEKVVREQPGSNLAKKALEIILRAAEELAKLPDPEALKEAVKAAEKVVREQPGSNLAKKALEIILRAAAALANLPDPESRKEADKAADKVRREQPGSELAVVAAIISAVARMGVKMELHPSGNEVKVVIKGLHIKQQRQLYRDVREAAKKAGVEVEIEVEGDTVTIVVRGGSHHWGSGSHHHHHH
notes: Bivalent connector
Does B6 bind [11]?
Result: binds

Does B6 bind [12]?
Result: binds

Does B6 bind [13]?
Result: binds

Does B6 bind [14]?
Result: binds

B7: LHD278 chainA (designed binder)
chain: GRQEKVLKSIEETVRKMGVRMLTHRGGNAVIVVIEGLHPSQIKQLMQDVIKTAKKQGVTVTITVSGDIVVIMVVVGASDEEQEEARRLVQEIARALQEAKRKGANEEQLEQLLRELLERAEREG
notes: also called LHD278A
With B7 as the binder, how does the Kd [15] read?
Its Kd is 3.4 nM.

Does B7 bind [7]?
Result: no binding (tested: 52.4 uM)

And the Kd [16]?
Its Kd is 0.8 nM.

What about the koff [16] of the same binder?
The koff was 0.00022 s⁻¹.

What about the kon [16] of the same binder?
Its kon is 290000 M⁻¹ s⁻¹.
